Experimental findings from article PMC8442866, “Ultrafast pore-loop dynamics in a AAA+ machine point to a Brownian-ratchet mechanism for protein translocation” (Science Advances, 2021) are described below.

The test system of data set [1] is T1, Nc1ncnc2c1ncn2[C@@H]1O[C@H](COP(=O)(O)OP(=O)(O)OP(=O)(O)O)[C@@H](O)[C@H]1O.
T1 construct: N-terminal domain removed, starts at residue 141; His6 tag with TEV site (pET28b); expressed in E. coli BL21 (DE3) pLysS; homohexamer
Briefly: coupled pyruvate kinase/lactate dehydrogenase NADH ATPase assay, Hill fit. It is filed as biochemical, Thermus thermophilus. The settings on record: 10 mM MgCl2, 25 mM Hepes pH 7.8, 25 mM KCl, 0.01% Tween 20, 25 °C, ATP 50 μM to 3 mM, 1 μM ClpB. The text has this: coupled pyruvate kinase/lactate dehydrogenase NADH ATPase assay, Hill fit on ΔN-ClpB (ClpB) | plotted as a function of ATP concentration and fitted to the Hill equation

Data set [2] addresses ClpB hexamer assembled with a single double-labeled S236C-S359C protomer (PL1 variant) (Thermus thermophilus) (UniProt Q9RA63).
The target in data set [3] is ClpB hexamer assembled with a single double-labeled S359C-Y646C protomer (PL3 variant) (Thermus thermophilus) (UniProt Q9RA63).
ClpB hexamer assembled with a single double-labeled S359C-Y646C protomer (PL3 variant) (Thermus thermophilus), sequence (Q9RA63 141-854 S359C/Y646C, chain 1 of 2): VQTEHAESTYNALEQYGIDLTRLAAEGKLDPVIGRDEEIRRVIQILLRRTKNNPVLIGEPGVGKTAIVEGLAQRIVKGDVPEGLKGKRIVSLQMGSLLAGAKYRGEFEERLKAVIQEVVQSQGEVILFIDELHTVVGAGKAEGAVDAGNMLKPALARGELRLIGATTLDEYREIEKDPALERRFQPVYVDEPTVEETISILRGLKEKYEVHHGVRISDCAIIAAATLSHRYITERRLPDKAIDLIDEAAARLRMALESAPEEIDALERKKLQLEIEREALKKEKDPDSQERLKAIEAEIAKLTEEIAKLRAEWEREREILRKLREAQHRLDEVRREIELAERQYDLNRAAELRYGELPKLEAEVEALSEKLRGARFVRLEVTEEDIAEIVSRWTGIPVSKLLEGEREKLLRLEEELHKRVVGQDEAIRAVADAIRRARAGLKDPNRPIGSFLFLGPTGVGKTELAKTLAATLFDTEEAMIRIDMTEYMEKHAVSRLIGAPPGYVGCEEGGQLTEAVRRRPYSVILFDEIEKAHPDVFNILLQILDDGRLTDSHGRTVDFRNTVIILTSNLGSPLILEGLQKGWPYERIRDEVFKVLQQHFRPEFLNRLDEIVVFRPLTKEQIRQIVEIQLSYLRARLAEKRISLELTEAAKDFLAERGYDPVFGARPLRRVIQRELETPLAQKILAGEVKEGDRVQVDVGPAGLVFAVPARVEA
ClpB hexamer assembled with a single double-labeled S359C-Y646C protomer (PL3 variant) (Thermus thermophilus), sequence (Q9RA63 141-854, stated change not applied, chain 2 of 2): as the sequence (Q9RA63 141-854 S359C/Y646C, chain 1 of 2) above, with C219S, C506Y counted along it
The target in data set [4] is ClpB hexamer assembled with a single double-labeled S236C-S359C protomer (PL1 variant) (Thermus thermophilus) (UniProt Q9RA63). The source holds these as a separate data set.
ClpB hexamer assembled with a single double-labeled S236C-S359C protomer (PL1 variant) (Thermus thermophilus), sequence (Q9RA63 141-854 S236C/S359C, chain 1 of 2): as the sequence (Q9RA63 141-854 S359C/Y646C, chain 1 of 2) above, with S96C, C506Y counted along it
ClpB hexamer assembled with a single double-labeled S236C-S359C protomer (PL1 variant) (Thermus thermophilus), sequence (Q9RA63 141-854, stated change not applied, chain 2 of 2): as the sequence (Q9RA63 141-854 S359C/Y646C, chain 1 of 2) above, with C219S, C506Y counted along it

ΔN-ClpB (ClpB) (Thermus thermophilus HB8), sequence (chain, as listed by the source mutant): as the sequence (Q9RA63 141-854 S359C/Y646C, chain 1 of 2) above, with C219S, C506Y counted along it

For the substance “ΔN-ClpB (ClpB) (Thermus thermophilus HB8)”, the K0.5 in data set [1] came out at 300 ± 20 µM.
For “κ-casein (from UniProt P02668 22-190) (natural protein)”, the smFRET: substrate-response factor R1 (ratio of K12^1 with and without 20 μM κ-casein), with ATP in data set [2] came out at 1.68. In addition, in data set [3], the smFRET: substrate-response factor R3 (ratio of K12^3 with and without 20 μM κ-casein), with ADP came out at 1.71; the smFRET: substrate-response factor R3 (ratio of K12^3 with and without 20 μM κ-casein), with ATP worked out at 2.28; the smFRET: substrate-response factor R3 (ratio of K12^3 with and without 20 μM κ-casein), with ATPγS was determined as 1.34. For the same substance, the smFRET with two-state H2MM analysis, 2 mM ATP: population ratio K12^1 of the two PL1 states without and with 20 μM κ-casein in data set [4] was found to be 0.81.
